In PMC6053418, “CTC1-STN1 terminates telomerase while STN1-TEN1 enables C-strand synthesis during telomere replication in colon cancer cells”:

B1: smFRET junction, 18 nt overhang (dsDNA)
DNA 1: TGGCGACGGCAGCGAGGCAGCGTATCCGTTCAGTTG
DNA 2: GCCTCGCTGCCGTCGCCA
B2: NonTel fold-back 18 nt 3' overhang (structured_DNA)
DNA: ACGACTGCATCTAGCTTTTTGCTAGATGCAGTCGTAGCGTATCCGTTCAGTTG

Columns and labels:
[1] = molecular target: T1, CST (CTC1-STN1-TEN1) (Homo sapiens, UniProt Q2NKJ3;Q9H668;Q86WV5 1-1217;1-368;1-123); experiment: EMSA; apparent Kd; EMSA: 25 mM Tris-HCl pH 8.0, 100 mM NaCl, 1 mM DTT; 0.1 nM DNA, 30 min RT (Kd(app): 0.01 nM DNA, 18 h, 4 °C). smFRET: 25 mM Tris-HCl pH 8.0, 150 mM NaCl, 1 mM D; conditions: protein: recombinant; tags: FLAG-CTC1, FLAG-STN1, untagged TEN1; copies: 1;1;1; label: 32P
T1 sequence (Q2NKJ3 whole entry, chain 1 of 3): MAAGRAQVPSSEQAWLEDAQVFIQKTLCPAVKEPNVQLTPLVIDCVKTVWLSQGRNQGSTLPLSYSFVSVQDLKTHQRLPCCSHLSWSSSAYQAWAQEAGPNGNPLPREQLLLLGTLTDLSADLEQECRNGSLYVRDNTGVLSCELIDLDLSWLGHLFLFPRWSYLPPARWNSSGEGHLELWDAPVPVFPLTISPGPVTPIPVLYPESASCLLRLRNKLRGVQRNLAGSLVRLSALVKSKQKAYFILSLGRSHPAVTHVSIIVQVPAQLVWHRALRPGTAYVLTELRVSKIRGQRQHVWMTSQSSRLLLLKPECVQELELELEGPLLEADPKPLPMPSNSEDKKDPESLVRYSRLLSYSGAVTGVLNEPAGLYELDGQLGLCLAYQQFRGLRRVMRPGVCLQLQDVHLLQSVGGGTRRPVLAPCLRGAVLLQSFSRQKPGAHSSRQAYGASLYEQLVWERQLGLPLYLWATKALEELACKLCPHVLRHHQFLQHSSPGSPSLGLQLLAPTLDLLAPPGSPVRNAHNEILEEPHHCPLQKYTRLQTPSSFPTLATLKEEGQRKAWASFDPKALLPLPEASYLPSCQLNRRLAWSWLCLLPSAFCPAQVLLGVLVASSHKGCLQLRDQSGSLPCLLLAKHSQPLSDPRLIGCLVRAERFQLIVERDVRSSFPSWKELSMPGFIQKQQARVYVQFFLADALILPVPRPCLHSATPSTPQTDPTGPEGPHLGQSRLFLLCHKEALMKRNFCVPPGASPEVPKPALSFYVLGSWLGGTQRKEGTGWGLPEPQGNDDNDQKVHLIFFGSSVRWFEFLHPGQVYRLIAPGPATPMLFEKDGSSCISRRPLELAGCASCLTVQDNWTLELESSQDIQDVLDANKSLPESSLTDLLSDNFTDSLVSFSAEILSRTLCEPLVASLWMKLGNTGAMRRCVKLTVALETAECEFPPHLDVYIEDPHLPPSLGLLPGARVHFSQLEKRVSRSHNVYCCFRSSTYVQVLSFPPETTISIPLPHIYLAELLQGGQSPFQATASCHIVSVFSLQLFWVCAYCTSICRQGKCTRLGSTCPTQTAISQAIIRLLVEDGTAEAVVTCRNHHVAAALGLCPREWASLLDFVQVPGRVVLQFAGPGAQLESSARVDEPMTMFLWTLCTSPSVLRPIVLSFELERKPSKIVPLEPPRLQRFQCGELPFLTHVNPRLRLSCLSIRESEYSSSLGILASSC
T1 sequence (Q9H668 whole entry, chain 2 of 3): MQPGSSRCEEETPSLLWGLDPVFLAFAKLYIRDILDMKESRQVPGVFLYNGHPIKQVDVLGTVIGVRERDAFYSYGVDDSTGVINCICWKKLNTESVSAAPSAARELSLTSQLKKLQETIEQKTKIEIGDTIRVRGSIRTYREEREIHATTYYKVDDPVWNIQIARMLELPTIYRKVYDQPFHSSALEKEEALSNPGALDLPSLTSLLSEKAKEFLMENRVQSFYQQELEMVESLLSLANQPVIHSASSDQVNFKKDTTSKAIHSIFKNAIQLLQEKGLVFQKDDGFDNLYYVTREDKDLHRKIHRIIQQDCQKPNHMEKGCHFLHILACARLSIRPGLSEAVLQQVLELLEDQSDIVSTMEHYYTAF
T1 sequence (Q86WV5 whole entry, chain 3 of 3): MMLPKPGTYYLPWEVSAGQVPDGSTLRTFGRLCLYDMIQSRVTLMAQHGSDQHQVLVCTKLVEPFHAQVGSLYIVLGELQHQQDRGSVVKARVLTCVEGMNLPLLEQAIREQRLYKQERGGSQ

[2] = molecular target: T2, CS (CTC1-STN1) (Homo sapiens, UniProt Q2NKJ3;Q9H668 1-1217;1-368); experiment: as above; conditions: protein: recombinant; tags: FLAG-CTC1, FLAG-STN1; copies: 1;1; label: 32P
T2 sequence (Q2NKJ3 whole entry, chain 1 of 2): as the sequence (Q2NKJ3 whole entry, chain 1 of 3) above
T2 sequence (Q9H668 whole entry, chain 2 of 2): as the sequence (Q9H668 whole entry, chain 2 of 3) above

[3] = molecular target: T1, CST (CTC1-STN1-TEN1); experiment: smFRET; 2 nM protein; dwell time 14.32 ± 0.81 (s; assigned from figure text); EMSA: 25 mM Tris-HCl pH 8.0, 100 mM NaCl, 1 mM DTT; 0.1 nM DNA, 30 min RT (Kd(app): 0.01 nM DNA, 18 h, 4 °C). smFRET: 25 mM Tris-HCl pH 8.0, 150 mM NaCl, 1 mM D; conditions: protein: recombinant; tags: FLAG-CTC1, FLAG-STN1, untagged TEN1; copies: 1;1;1; label: strand 1 3'-Cy3; strand 2 5'-Cy5 and 3'-biotin; 18 bp duplex, 3' overhang 18 nt
[4] = molecular target: T2, CS (CTC1-STN1); experiment: smFRET; 2 nM protein, imaged immediately; dwell time 8.22 ± 0.64 (s; assigned from figure text), 43% lower than CST; lost after flushing; EMSA: 25 mM Tris-HCl pH 8.0, 100 mM NaCl, 1 mM DTT; 0.1 nM DNA, 30 min RT (Kd(app): 0.01 nM DNA, 18 h, 4 °C). smFRET: 25 mM Tris-HCl pH 8.0, 150 mM NaCl, 1 mM D; conditions: protein: recombinant; tags: FLAG-CTC1, FLAG-STN1; copies: 1;1; label: strand 1 3'-Cy3; strand 2 5'-Cy5 and 3'-biotin; 18 bp duplex, 3' overhang 18 nt
[5] = molecular target: T2, CS (CTC1-STN1); experiment: EMSA; about 5-fold less efficient than CST; EMSA: 25 mM Tris-HCl pH 8.0, 100 mM NaCl, 1 mM DTT; 0.1 nM DNA, 30 min RT (Kd(app): 0.01 nM DNA, 18 h, 4 °C). smFRET: 25 mM Tris-HCl pH 8.0, 150 mM NaCl, 1 mM D; conditions: protein: recombinant; tags: FLAG-CTC1, FLAG-STN1; copies: 1;1; label: 32P; hairpin, 15 bp stem, T5 loop, 3' overhang 18 nt
[6] = molecular target: T1, CST (CTC1-STN1-TEN1); experiment: EMSA; EMSA: 25 mM Tris-HCl pH 8.0, 100 mM NaCl, 1 mM DTT; 0.1 nM DNA, 30 min RT (Kd(app): 0.01 nM DNA, 18 h, 4 °C). smFRET: 25 mM Tris-HCl pH 8.0, 150 mM NaCl, 1 mM D; conditions: protein: recombinant; tags: FLAG-CTC1, FLAG-STN1, untagged TEN1; copies: 1;1;1; label: 32P; hairpin, 15 bp stem, T5 loop, 3' overhang 18 nt

Binder | Kd [1] [nM] | Kd [2] [nM] | also measured
GGTTAGGGTTAGGGTTAG (ssDNA) [Tel-18] | 0.21 ± 0.07 | 1.04 ± 0.46 | –
GGTTAGGGTTAGGGTTAGGGTTAGGGTTAGGGTTAG (ssDNA) [Tel-36] | 0.02 ± 0.03 | 0.33 ± 0.08 | –
B1 | – | – | binding result [3]: binds; binding result [4]: binds
B2 | – | – | binding result [5]: binds; binding result [6]: binds
AGCGTATCCGTTCAGTTGAGCGTATCCGTTCAGTTGAGCGTATCCGTT (ssDNA) [NonTel-48] | 0.01 ± 0.005 | 0.08 ± 0.05 | –
